Data: WO2017061602A1 (dated 2017)

Tests used:
[1] = target: T1, extracellular domain human CD147-His (human, UniProt P35613 140-323); assay: ELISA, extracellular domain human CD147-His on the plate
T1 construct: Made in FreeStyle-293F cells, purified on His-Trap HP; also called extracellular domain CD147-His; human CD147 extracellular domain antigen
T1 sequence: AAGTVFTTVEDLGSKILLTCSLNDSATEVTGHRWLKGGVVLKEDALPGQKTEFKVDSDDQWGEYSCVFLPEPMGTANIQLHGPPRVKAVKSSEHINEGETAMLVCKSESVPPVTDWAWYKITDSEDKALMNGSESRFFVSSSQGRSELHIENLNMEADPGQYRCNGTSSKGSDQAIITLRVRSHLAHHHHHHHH

[2] = target: T2, extracellular domain cynomolgus monkey CD147-His (cynomolgus monkey); assay: ELISA, extracellular domain cynomolgus monkey CD147-His on the plate
T2 construct: Made in FreeStyle-293F cells, purified on His-Trap HP; also called monkey extracellular domain CD147-His; cynomolgus monkey CD147 extracellular domain antigen
T2 chain: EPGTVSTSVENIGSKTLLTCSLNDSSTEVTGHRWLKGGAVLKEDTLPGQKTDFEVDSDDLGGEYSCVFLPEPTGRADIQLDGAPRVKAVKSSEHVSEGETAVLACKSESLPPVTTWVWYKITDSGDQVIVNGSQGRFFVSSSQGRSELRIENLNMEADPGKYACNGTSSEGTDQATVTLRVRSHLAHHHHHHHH

B1: HAb18 (antibody, V domains shown)
VH: EVKLEESGGGLVQPGGSMKLSCVASGFTFSDAWMDWVRQSPEKGLEWVAEIRSKANNHAPYYTESVKGRFTISRDDSKSIIYLQMNNLRAEDTGIYYCTRDSTATHWGQGTLVTVSA
VL: SIVMTQTPTFLVVSAGDRVTITCKASQSVINDVAWYQQKPGQSPKLLIFYASNRNTGVPDRFTGSGYGTDFTFTISTVQAEDLAVYFCQQDYSPPFTFGSGTKLEIK
notes: also called HAb18G; target antibody HAb18
B1: binds [1]; no binding [2].
